Measurements published in a protein production outcome set (Wang et al. 2014).

Assay: label from the status in PepcDB records

Sequence: MLTAQSEYVKKLRPLLPPEAFQADPKKLVILGLNLGIYVAGLTIARHLHQWPGQWLWLFLPMALLMGNSVTVFLFGSHDLMHGSVLKKRSKISYLISLLGLSLWWMPPSQWRSLHNQVHHNNTNSLRDPDRNYLHEQPKTWGKWIHHLFAPSGEVNTLWLIFGMGTAWGVHNFRNLISVLFFTGGNADFVPAAFTVKAQDRQRIWLELAAIGAVHLSILFYLQFQLIPIILGYFLPIFLGHAMGMFYIYTNHLACPMTDINDPLVNSVSLRMPKLFDCLHFNFSYHTEHHLFPDVNSDYYPLVQDLLQTHYPGQMNLLTAKEAWKMLLETPRHYQGETTLVGYNGGETIACPLPKNVPDLTETKVTASV
- protein production: failed

Sequence: MLTFEKVLEIFADYLAADKTIEVYISRHGCVRVEFDQDFHYCTGEVCHTPRKLFDLLSDDYQTYLEIELTKGRRELTEDDIKEADTLCKRYLDRWKEELGLEHHHHHH
- protein production: not failed

Sequence: MLTIDTASRTFHCKTWVTGQTQGKAVIARERISFWGGFDPQTGRIVDPYSSLRGRDISDCVLILLSSKGSSGTSGMLSLATRAGHAPAAMIQVEMDPVTVMGCLVNNIPLLQATGFDPFEQIQDGDLVRIDGENGTITLAPGQALEHHHHHH
- protein production: not failed

Sequence: MLTKLGIKGRELLLTILPASLMAAMLGGYFTWMQLSELQSQLLLRGEMIAQDLAPLSASALGRKDKVLLSRIATQTLEQPDVRAVSFLDVDRSPLAHAGPTMISPTPIGNSSQLLNSTGTDATRYLLPVFGNQRHLTSPIIPAEADTLMGWVDVEISHNGTLLRGYRSLFASLLLIFTGLAITAVVAVRLSRTINGPMSQIKQAVSQLKDGNLETRLPPLGSRELDELASGINRMAATLQNAQEELQMSIDQATEDVRQNLETIEIQNIELDLARKEALEASRIKSEFLANMSHEIRTPLNGILGFTHLLQKSELTPRQFDYLATIEKSADNLLSIINEILDFSKIEAGKLVLDNIPFNLRDLLQDTLTILAPAAHAKHLELVSLVYRDTPLALSGDPLRLRQILTNLVSNAIKFTREGTIVARAMLEDETEEHAQLRISVQDTGIGLSSQDVRALFQAFSQADNSLSRQPGGTGLGLVISKRLIEQMGGEIGVDSTPGEGSEFWISLKLPKAREDKEESLNLPLEGLRAAVLEHHDLARQALEHQLEDCGLHTVVFTNLENLLNGVTAAHETPAAIDLAVLGVTTLEISPERLRQHIWDLENLNCKVMVLCPTTEYALFQLAVHDVYTQLQAKPACTRKLQKALSELIAPRAIRADIAPPLSSRAPRVLCVDDNPANLLLVQTLLEDMGAEVMAVEGGYAAVNAVQQEAFDLVLMDVQMPGMDGRQATEAIRAWEAERGQSSLPIVALTAHAMANEKRSLLQSGMDDYLTKPISERQLAQVVLKWSGLALRNPAPERQNESLEAHVGPLVLDPEEGLRLAAGKADLAADMLAMLLASLDADREAIRVARASQDVQALIERIHRLHGATRYCGVPQLRTACQRAETLLKQDAPHTGDALDDLDKAIVRLETEARVTA
- protein production: failed

Sequence: MLTLDLSAVRCQNGVPFLRYYWNLPVNQSHSGPLANNHAQLGLLFISVAVLFWGMLPIALKLSGSFIDPVTLTWFRFLVALIVSILVQWSAGSLKQFAALDAKVWLRLILAGLFLMLNYVSFVYSLDYLAPGAAQLNFQTSPFFLAFGGVLFFKERLNAIQLSCFASLALGMLMFFHPFLDFSATDNHEIWLGVMIVQFSALSWTTYALLQKSLLNRLSPANVLLVIYALGIFAMAPFSDFSQFAQMNSFDWQVALFCAANTLIAYGCFGQSMKYWPTAQVSAMLALTPVFSFSATALVVSIGWWPEVFRADELDALSLFGIGVIIVSVMVVQLLPLYRQRRARRLQPI
- protein production: failed

Sequence: MLTLEIFRALLLGFTIGLTGALVPGPMLFATIELSLKKGWLAGPEVVFGHILVELVLSILILFGVASFIGSGAISAVSIIGGFSLTVFGLLTVKDAKTTASAGLSPETSGLKLTSNPVALGLITSVSNPYFWIWWLTAGSALVLKAYELGIIISIAYILGHWTADLSWFTAISGSFSRGKTLFSQQTHRYILYACGTFLIFFGLYFMFNYKGAAQLF
- protein production: failed

Sequence: MLTMQEIKAHYRFTDEDAELLGSLFPLAETNKERLADQFYDYLLGIPETAEFLKEDLVLQKLKQTHQDWFVSLFAGSYDNRYIHNLQKIGHAHVRVGLNAHYVNVAMNVVRQFTLSIIQDNFPDPEERRQRREAVEKILDINLDIMSASYREEEMRKFFVSHRLESKLITATERFTYGLNLILVLALAGVSVSVVGLFIWDIGHIFQGSVEKGILSALGSLLILWMMIELIENEIKILKGGRFNILFFIGVIIVALIREILISTLRHDPLTTQVFLAGTLLVLGVVYFLVSKSQQPYTPH
- protein production: failed

Sequence: MLTNGMKYHEKLVDESSRNILFIGQDRISGLYDTIGILSIDRKNKKLKIIMIPRDLYIDYSSRVKHYLEENGRLNDPDFYKINAAHLIGPYMKYEGKFGAYSMNFLAELIKEIFDIEVHDYVRVNTEGFVQIVDLFGGVDINVPYDMHYDDIYQDLHIHINKGWNHLDGKKAEGFVRYRQSNDEMGNITHSIGDYERKKNQINFIKAFIEQHGTMSNIDKLPSLISTLNKYMKHSIGVGDVLTTYIGYAKDVVLYKYPIETYTVTGKDKYMNQRYYIVIENDNKTSKVVDLEHHHHHH
- protein production: failed

Sequence: MLTPLQIYFPIGVVLLVAVVLAFTMLGLANVLGPRRPSLVKQTPFECGSEPIGSARERFGVKFYVVALLFIVFDIEAIFLYPWAVLLLPDGQGYPGLGWPGFISMGIFVFTLVAGLVYVWKKGVLDWAD
- protein production: failed

Sequence: MLTQGNFDVLPVGDGAKRAQTVQPTVKLRIETIGVPRISDENGRNLTPVGSRNRVIPVILALSPRMTVGRRWLEALLWSDRGPDQASGSLRQALSSIRRQLGDARDILCANRTDIWMTSKDVTIDLLDDQQGVLQRLRAGRDFLEGIDILSEGFEDWLRQERASLLQMAEVELPARALPARLHATEAERPLSWTQEPPRFFLDQDLGLESDKLERFLTDAISTQLTQTVKSHFRADVRALDGTLTPVIVTPGARFAIRVTRINKAFAVLARMTEEPAGRLFWSRQLFIDSRETESMMDTAAALATEASEAMGARSFVASPAQQANVLAAEALADVFSFDPDRLRKAIRTLGRANDIDPHAPRPALKALALAFLALETRNTDRDHLIGEVTDLIRQSRALDSRNALALSFLADVQDLVFEDPQTALSYAKSALRSNPGIGYAYASLGALELRRGAAEAALIAASRAQRQLANSSLEVFSLMRLCVANLTAKDFDAAEQAAQRAAELAPTSQPPLRHLYALRLRRKDYAAARQTLRALRRLDPLFSMQYLRENPEFPAATIRTMQLHKLMDVELG
- protein production: failed

Sequence: MLTQYRQAQEDILRGRVKVRVVGQDKGGGVVMGEGVEIAPGARIEGPVLIGGACHIATGAVVGPFTVLGPYTRVEEGATVRRSVLWDNVYTGEGANVRGLEHHHHHH
- protein production: not failed

Sequence: MLTTQGVPEFCYITIIGLILFMIFKEVLSQSKFWRKDLESSSNMVILPLLISFSAIVAYKIAEIL
- protein production: failed

Sequence: MLVAAACFTIMNVLIKEASAKFALGSGELVFWRMLFSTVALGAAAVLRRDTFRTPHWKNHLNRSMVGTGAMLLLFYAVTHLPLATGVTLSYTSSIFLAVFSFLILKERISVYTQAVLLLGFAGVVLLLNPSFRSGQETAALAGLAGGAMSGWAYLKVRELSLAGEPGWRVVFYLSVTGVAMSSVWATLTGWHTLSFPSAVYLSCIGVSALIAQLSMTRAYKVGDKFTVASLSYMTVVFSALSAAFFLGEELFWQEILGMCIIILSGILSSIRPTAFKQRLQSLFRQR
- protein production: failed

Sequence: MLVKFWGVRGSLPAPLTPAQVQSKIAAVVQRITLKDIESQDSRERFLASLPKWLFGTIGSNTACVEVETDDGGHLIFDAGTGIRELGIDLMKRPDYGKNTTYHLFFSHFHWDHIQGLPFFNPAYDPRNKIIVYSTRKKAKEFLEDQMKYPYFPISMLGEDGFGASFEFKYIEPDQKYVEIGDTKIGWHRVRHPGGCTAYSVIEKGKKIIYSTDTELRPRDFERNEQNAEFYTDAEMLIIDAQYTLTDSILKEGWGHSTFSVAIDFAAGWNIKSIALFHHEPTYHDKKVFSLKQTADWYRDCSRAPDIKIFIAQEGRSFLI
- protein production: failed

Sequence: MLVLILSSGVSVAIATETNDLSIAAVLISPSDVVFAKEANTIVVYGITNSGTENLTNITVDVYASDVSGTVPVNTETISSLAGGGTTTIFITDPTIRDLQGSTVTYTAVIDPDNLIPETNEANNNRSSAAVPVRYNGYKGKRYWEGASDITTKHTYDFNGDVSSSSQPSTSYRSQGAWSNGRTETWGGSVPNPDLPSGSTIEQALLYVAYNWDETPGGYPWWNVSFNNVIIDYGNISTGNGILYTDMSNFGLYADYEYGLVVYDVTNLYNSTDYNGLKMYPYNSTFADLTALYPSTLVIIYQNPNMTRKQIFINEECDELGVSESTYGTTPEEATAYAPFTGMSIDVSNVSNATLYSFAGSAGPDEGNLLFNGNTVATNAWHGDAYTASASVFDVKNYINSTGNEAGIQGTVSGGMDVLQQILVVEYVESVPSALDANLTANVTSGTAPLTVQFTDLSEGNVTNWLWDFGDNTNSTSQNVSHTYNSPGTYTVNLTVTGPEGSDSEVKTDFITVSDSNVSAPVAAFTATPLVGTAPLQVAFTDQSTNSPTEWKWEYNNGSGWVEFSNETNASYSFATAVPYDIQLTVSNSGGSDDETKLHYISVGNVREPLNTVQSGTVSGDLYISSPTTWPATEVNQTFTLPAAAVGNIQWAKLYVNTYSGSAANTYALSSTVKLDGDGDSTYESTLGTETMDIASLTNGASFPLNDHVNKVYSDYEAQYDVTSLISAANPAINVKSEAISGKNFDGRIKGVTLVVAYNNTSSTDQTYYWVNHGGDWSSPANGNTIFDTSGLSSGWVSAESKIRYFSYSDANYTFNGVAKTGSTPSNYSGLNTWDVTDNITAGQSSTLAYSKGSGSYKTTLATLKVKYETPGFSNKVTLGDTSPVSPTLASLNGRLYLAWKGDGNNNLNVMYSADNGMTFGNKYTSSETSPESPALCVHNNSLYIAWKGNGSNYLNVAQVTMNGDNITDFSNKVTLGDTSPVSPALASLNGRLYLAWKGDGNNNLNVMYSADNGMTFGNKYTSSETSPESPALCVHNNSLYIAWKGNGNNYLNVAQVTMNGDNITDFSNKVTLGDTSPVSPALASLNGRLYLAWKGDGNNNLNVMYSADNGMTFGNKYTSPETSPESPALCVHNNSLYIAWKGDGNNNLNVAQVI
- protein production: failed

Sequence: MLVNRIISATVAGLVAVVIGFASSVALIYQTVINLGGDASLASSWILTLGLSMGITSIALSFYYRVPILIAWSTPGAALLIANTQNFNLNEAIAGFMFSALLIFLCGITGWFEKLINKLPFQLASAMLGGILVNFGIDVFNQMNKAPLLVIVMFFTYLVCRQLMPKFTMLFVLIISVVLAWQLKLMTFTAFSWQLSEFTYISPEFNMSAVLGIGIPLFLVTMAAQNLPGIAVLKAHNYKAPVSSILSVTGFVNMLAAPFGGYAINLAAITAAICMTKDVDKDPKKRYWAGISGGGFYILMAISAGYLMQAFASLPNALIYSLAGMALFTTINSSIQQALSDDKMSEAAIITFLVTASNLSLWDISSVLWGLIAGSITLMTQSLLNRSNDKLC
- protein production: failed

Sequence: MLVSEMHGEVEAVKVGTEVQGRVLHWVYLYYYRNLLFDAGCPNTAQEVFEHFKGREIKAVLITHYHEDHIGAVNLFKEITDVYVPEESLEILRNPPDIPKYRKIGWGQPEKIEGVKVAKEVMKFDDVEVRMIKTPGHSFDHVSYLVDDKLFCGDLVINTAQMVCMREENLLKTIESIEKVLKYDFNYAYTGVGVASRDEVVEYLNYLKGLKEKAEMLYAEGKTIDEIVAACFPNPSQKAILMEFVSEKEWARENMVKSLLGLPRE
- protein production: failed
